Here are results for two molecules from patent US20230114801A1 (SYSTIMMUNE, published 2023).

For orientation: Kd means the constant that tells how readily two partners part at equilibrium. Lower therefore signals higher affinity.

What all share (experiment): BLI (Octet), binder on AHC sensor, 100 nM human antigen, 1:1 fit
In general terms: In BLI a coated tip is dipped into the sample, and binding shifts an interference pattern.

In one experiment the target is T1, human HER3 (human, UniProt P21860 20-643).
T1 construct: Soluble antigen in Octet; bought; also called human HER3 (Acro ER3-H5223)

A further experiment deals with T2, human CD3 (human, UniProt P07766 23-126; P04234 22-105).
T2 construct: also called His-tagged human CD3; human CD3 (Acro CDD-H52W1)

The target in a further experiment is T3, human EGFR (human, UniProt P00533 25-645, limits assumed).
T3 construct: Soluble antigen in Octet; construct not described

For another experiment, the target named is T4, human 4-1BB (human, UniProt Q07011 24-186, limits assumed).
T4 construct: Soluble antigen in Octet; construct not described

For another experiment, the target named is T5, human PD-L1 (human, UniProt Q9NZQ7 19-238).
T5 construct: Soluble antigen in Octet; bought; also called human PD-L1 (Acro PD1-H5229)

B1: SI-75E1 (other)
chain 1: EIVLTQSPSTLSVSPGERATFSCRASQSIGTNIHWYQQKPGKPPRLLIKYASESISGIPDRFSGSGSGTEFTLTISSVQSEDFAVYYCQQNNNWPTTFGPGTKLTVLGGGGSGGGGSGGGGSGGGGSQVQLQQSGPGLVKPSETLSITCTVSGFSLTNYGVHWIRQAPGKGLEWLGVIWSGGNTDYNTPFTSRFTITKDNSKNQVYFKLRSVRADDTAIYYCARALTYYDYEFAYWGQGTLVTVSSGGGGSGGGGSEVQLVESGGGLVQPGGSLRLSCAASGFTISTNAMSWVRQAPGKGLEWIGVITGRDITYYASWAKGRFTISRDNSKNTLYLQMNSLRAEDTAVYYCARDGGSSAITSNNIWGQGTLVTVSSASTKGPSVFPLAPSSKSTSGGTAALGCLVKDYFPEPVTVSWNSGALTSGVHTFPAVLQSSGLYSLSSVVTVPSSSLGTQTYICNVNHKPSNTKVDKRVEPKSCDKTHTCPPCPAPEAAGGPSVFLFPPKPKDTLMISRTPEVTCVVVDVSHEDPEVKFNWYVDGVEVHNAKTKPREEQYNSTYRVVSVLTVLHQDWLNGKEYKCAVSNKALPAPIEKTISKAKGQPREPQVYTLPPSRDELTKNQVSLSCAVKGFYPSDIAVEWESNGQPENNYKTTPPVLDSDGSFFLVSKLTVDKSRWQQGNVFSCSVMHEALHNHYTQKSLSLSPGGGGGSGGGGSDVVMTQSPSSVSASVGDRVTITCQASQNIRTYLSWYQQKPGKAPKLLIYAAANLASGVPSRFSGSGSGTDFTLTISDLEPGDAATYYCQSTYLGTDYVGGAFGGGTKLTVLGGGGSGGGGSGGGGSGGGGSEVQLVESGGGLVQPGGSLRLSCTASGFTISSYHMQWVRQAPGKGLEYIGTISSGGNVYYASSARGRFTISRPSSKNTVDLQMNSLRAEDTAVYYCARDSGYSDPMWGQGTLVTVSS
chain 2: QSALTQPASVSGSPGQSITISCTGTSSDVGGYNFVSWYQQHPGKAPKLMIYDVSDRPSGVSDRFSGSKSGNTASLIISGLQADDEADYYCSSYGSSSTHVIFGGGTKVTVLGGGGSGGGGSGGGGSGGGGSQVQLQESGGGLVKPGGSLSLSCAASGFTFSSYWMSWVRQAPGKGLEWVANINRDGSASYYVDSVKGRFTISRDDAKNSLYLQMNSLRAEDTAVYYCARDRGVGYFDLWGRGTLVTVSSGGGGSGGGGSDVVMTQSPSTLSASVGDRVTINCQASESISSWLAWYQQKPGKAPKLLIYEASKLASGVPSRFSGSGSGTEFTLTISSLQPDDFATYYCQGYFYFISRTYVNSFGGGTKVEIKRTVAAPSVFIFPPSDEQLKSGTASVVCLLNNFYPREAKVQWKVDNALQSGNSQESVTEQDSKDSTYSLSSTLTLSKADYEKHKVYACEVTHQGLSSPVTKSFNRGECGGDKTHTCPPCPAPEAAGGPSVFLFPPKPKDTLMISRTPEVTCVVVDVSHEDPEVKFNWYVDGVEVHNAKTKPREEQYNSTYRVVSVLTVLHQDWLNGKEYKCAVSNKALPAPIEKTISKAKGQPREPQVYTLPPSRDELTKNQVSLWCLVKGFYPSDIAVEWESNGQPENNYKTTPPVLDSDGSFFLYSKLTVDKSRWQQGNVFSCSVMHEALHNRFTQKSLSLSPG
notes: tetra-miniGNC; D1 αEGFR, D2 αHER3, D3 αCD3 (Fab), D4 α4-1BB
On to B1, for which the Kd stood at 185 nM with human HER3, 20.3 nM with human CD3, 8.9 nM with human EGFR and 17.8 nM with human 4-1BB.

B2: SI-75E2 (other)
chain 1: EIVLTQSPSTLSVSPGERATFSCRASQSIGTNIHWYQQKPGKPPRLLIKYASESISGIPDRFSGSGSGTEFTLTISSVQSEDFAVYYCQQNNNWPTTFGPGTKLTVLGGGGSGGGGSGGGGSGGGGSQVQLQQSGPGLVKPSETLSITCTVSGFSLTNYGVHWIRQAPGKGLEWLGVIWSGGNTDYNTPFTSRFTITKDNSKNQVYFKLRSVRADDTAIYYCARALTYYDYEFAYWGQGTLVTVSSGGGGSGGGGSEVQLVESGGGLVQPGGSLRLSCAASGFTISTNAMSWVRQAPGKGLEWIGVITGRDITYYASWAKGRFTISRDNSKNTLYLQMNSLRAEDTAVYYCARDGGSSAITSNNIWGQGTLVTVSSASTKGPSVFPLAPSSKSTSGGTAALGCLVKDYFPEPVTVSWNSGALTSGVHTFPAVLQSSGLYSLSSVVTVPSSSLGTQTYICNVNHKPSNTKVDKRVEPKSCDKTHTCPPCPAPEAAGGPSVFLFPPKPKDTLMISRTPEVTCVVVDVSHEDPEVKFNWYVDGVEVHNAKTKPREEQYNSTYRVVSVLTVLHQDWLNGKEYKCAVSNKALPAPIEKTISKAKGQPREPQVYTLPPSRDELTKNQVSLSCAVKGFYPSDIAVEWESNGQPENNYKTTPPVLDSDGSFFLVSKLTVDKSRWQQGNVFSCSVMHEALHNHYTQKSLSLSPG
chain 2: QSALTQPASVSGSPGQSITISCTGTSSDVGGYNFVSWYQQHPGKAPKLMIYDVSDRPSGVSDRFSGSKSGNTASLIISGLQADDEADYYCSSYGSSSTHVIFGGGTKVTVLGGGGSGGGGSGGGGSGGGGSQVQLQESGGGLVKPGGSLSLSCAASGFTFSSYWMSWVRQAPGKGLEWVANINRDGSASYYVDSVKGRFTISRDDAKNSLYLQMNSLRAEDTAVYYCARDRGVGYFDLWGRGTLVTVSSGGGGSGGGGSDVVMTQSPSTLSASVGDRVTINCQASESISSWLAWYQQKPGKAPKLLIYEASKLASGVPSRFSGSGSGTEFTLTISSLQPDDFATYYCQGYFYFISRTYVNSFGGGTKVEIKRTVAAPSVFIFPPSDEQLKSGTASVVCLLNNFYPREAKVQWKVDNALQSGNSQESVTEQDSKDSTYSLSSTLTLSKADYEKHKVYACEVTHQGLSSPVTKSFNRGECGGDKTHTCPPCPAPEAAGGPSVFLFPPKPKDTLMISRTPEVTCVVVDVSHEDPEVKFNWYVDGVEVHNAKTKPREEQYNSTYRVVSVLTVLHQDWLNGKEYKCAVSNKALPAPIEKTISKAKGQPREPQVYTLPPSRDELTKNQVSLWCLVKGFYPSDIAVEWESNGQPENNYKTTPPVLDSDGSFFLYSKLTVDKSRWQQGNVFSCSVMHEALHNRFTQKSLSLSPGGGGGSGGGGSDIQMTQSPSTLSASVGDRVTITCQASQSISSHLNWYQQKPGKAPKLLIYKASTLASGVPSRFSGSGSGTEFTLTISSLQPDDFATYYCQQGYSWGNVDNVFGGGTKVTVLGGGGSGGGGSGGGGSGGGGSEVQLLESGGGLVQPGGSLSLSCAASGFSFSSGYDMCWVRQAPGKGLEWIACIAAGSAGITYDANWAKGRFTISRDNSKNTLYLQMNSLRAEDTAVYYCARSAFSFDYAMDLWGQGTLVTVSS
notes: tetra-miniGNC; D1 αEGFR, D2 αHER3, D3 αCD3 (Fab), D5 αPD-L1; also called tetra-miniGNC (SI-75E2)
With B2, the Kd was 114 nM with human HER3, 1.36 nM with human PD-L1, 22.1 nM with human CD3 and 8.24 nM in the experiment with human EGFR.
